Experiment [1] has as its target human CD59 20A23A (human) (UniProt P13987). Put plainly: flow cytometry on CHO cells expressing the CD59 form. (Flow cytometry measures light scatter and fluorescence of single cells or particles in a stream.)
A further experiment addresses human CD59 D24A (human) (UniProt P13987). The experiment is described as above.
For a further experiment, the target named is human CD59 5R (human) (UniProt P13987). The description is as above.
Experiment [2] deals with human CD59 51A plus 20-23A (human) (UniProt P13987). Described as above.
Sequence of human CD59 51A plus 20-23A (human) (P13987 other isoform, or with tags, fused parts or gaps): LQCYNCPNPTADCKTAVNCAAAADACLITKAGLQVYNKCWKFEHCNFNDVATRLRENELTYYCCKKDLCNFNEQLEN
In a further experiment the target is human CD59 9R (human) (UniProt P13987). Described as above.
Sequence of human CD59 9R (human) (P13987 26-102): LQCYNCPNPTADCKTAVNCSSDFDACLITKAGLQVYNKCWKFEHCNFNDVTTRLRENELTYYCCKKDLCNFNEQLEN
Another experiment concerns the target human CD59 F42A (human) (UniProt P13987). The experiment is described as above.
In another experiment the target is human CD59 H44A (human) (UniProt P13987). The experiment is described as above.
Sequence of human CD59 H44A (human) (P13987 26-102 H69A): as the sequence (P13987 26-102) above, with H44A counted along it
The next experiment addresses human CD59 W40A (human) (UniProt P13987). The description is as above.
A further experiment deals with human CD59 T52A (human) (UniProt P13987). The experiment is described as above.
Sequence of human CD59 T52A (human) (P13987 26-102, stated change not applied): as the sequence (P13987 26-102) above
A further experiment concerns the target human CD59 F23G (human) (UniProt P13987). Described as above.
Experiment [3] has as its target wild type human CD59, epitope-tagged, GPI-anchored on CHO cells (human) (UniProt P13987). The description is as above.
The target of experiment [4] is C8/C9 (complement components C8 and C9 of normal human serum, in the assembling membrane attack complex) (human) (UniProt P07357). Put plainly: cell-based or functional assay.
Sequence of C8/C9 (complement components C8 and C9 of normal human serum, in the assembling membrane attack complex) (human) (P07357 31-584 limits assumed, chain 1 of 4): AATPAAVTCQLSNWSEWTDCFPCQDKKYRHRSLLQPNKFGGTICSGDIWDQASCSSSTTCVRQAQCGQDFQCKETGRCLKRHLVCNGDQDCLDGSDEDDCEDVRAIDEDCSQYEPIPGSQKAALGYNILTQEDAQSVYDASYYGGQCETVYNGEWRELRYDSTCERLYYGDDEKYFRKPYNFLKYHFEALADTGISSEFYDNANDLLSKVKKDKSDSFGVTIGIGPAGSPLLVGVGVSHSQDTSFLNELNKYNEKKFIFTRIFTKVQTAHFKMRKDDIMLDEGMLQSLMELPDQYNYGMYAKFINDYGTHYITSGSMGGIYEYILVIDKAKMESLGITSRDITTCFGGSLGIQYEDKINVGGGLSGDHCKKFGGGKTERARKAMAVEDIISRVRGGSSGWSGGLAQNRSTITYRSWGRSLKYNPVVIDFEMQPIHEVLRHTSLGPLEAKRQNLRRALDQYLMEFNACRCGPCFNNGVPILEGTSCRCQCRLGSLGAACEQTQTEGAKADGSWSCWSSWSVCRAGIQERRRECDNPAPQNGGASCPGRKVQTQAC
Sequence of C8/C9 (complement components C8 and C9 of normal human serum, in the assembling membrane attack complex) (human) (P07358 55-591 limits assumed, chain 2 of 4, further chain): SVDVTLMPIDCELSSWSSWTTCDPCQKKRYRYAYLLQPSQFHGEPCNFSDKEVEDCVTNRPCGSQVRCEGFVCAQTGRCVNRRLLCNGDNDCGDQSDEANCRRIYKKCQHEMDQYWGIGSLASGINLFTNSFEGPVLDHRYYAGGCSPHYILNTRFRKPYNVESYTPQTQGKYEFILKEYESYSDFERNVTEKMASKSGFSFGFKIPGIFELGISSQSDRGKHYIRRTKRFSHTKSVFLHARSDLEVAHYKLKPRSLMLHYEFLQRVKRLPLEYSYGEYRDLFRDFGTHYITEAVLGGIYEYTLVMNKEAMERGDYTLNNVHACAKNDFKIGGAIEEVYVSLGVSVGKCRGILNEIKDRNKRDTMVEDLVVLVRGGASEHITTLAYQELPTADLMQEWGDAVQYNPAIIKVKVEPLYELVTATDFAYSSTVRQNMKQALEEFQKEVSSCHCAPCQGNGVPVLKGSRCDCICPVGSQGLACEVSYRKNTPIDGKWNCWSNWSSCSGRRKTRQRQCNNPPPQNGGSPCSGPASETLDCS
Sequence of C8/C9 (complement components C8 and C9 of normal human serum, in the assembling membrane attack complex) (human) (P07360 21-202 limits assumed, chain 3 of 4, further chain): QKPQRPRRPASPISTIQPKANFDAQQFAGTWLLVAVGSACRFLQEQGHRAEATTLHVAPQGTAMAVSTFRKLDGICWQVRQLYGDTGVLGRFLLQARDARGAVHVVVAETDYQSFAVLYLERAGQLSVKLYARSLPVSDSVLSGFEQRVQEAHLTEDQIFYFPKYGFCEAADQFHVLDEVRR
Sequence of C8/C9 (complement components C8 and C9 of normal human serum, in the assembling membrane attack complex) (human) (P02748 22-559 limits assumed, chain 4 of 4, further chain): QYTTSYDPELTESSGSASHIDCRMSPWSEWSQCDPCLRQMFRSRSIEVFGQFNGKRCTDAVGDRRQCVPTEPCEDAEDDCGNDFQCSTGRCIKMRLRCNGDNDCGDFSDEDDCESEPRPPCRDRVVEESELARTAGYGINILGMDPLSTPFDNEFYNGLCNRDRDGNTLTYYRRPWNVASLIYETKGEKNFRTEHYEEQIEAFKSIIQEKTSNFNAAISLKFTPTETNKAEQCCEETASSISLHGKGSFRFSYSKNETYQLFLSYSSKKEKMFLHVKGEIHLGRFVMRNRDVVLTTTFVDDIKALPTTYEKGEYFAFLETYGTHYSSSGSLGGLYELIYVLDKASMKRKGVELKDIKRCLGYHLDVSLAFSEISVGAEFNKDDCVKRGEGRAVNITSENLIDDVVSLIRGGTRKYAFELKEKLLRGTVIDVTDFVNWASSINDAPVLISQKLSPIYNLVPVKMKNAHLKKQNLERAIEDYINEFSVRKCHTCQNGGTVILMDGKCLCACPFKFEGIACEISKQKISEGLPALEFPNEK

Sequence of human CD59 F42A (human) (P13987 26-102 F67A): as the sequence (P13987 26-102) above, with F42A counted along it
Sequence of human CD59 20A23A (human) (P13987 other isoform, or with tags, fused parts or gaps): as the sequence (P13987 26-102) above, with S20A, F23A counted along it
Sequence of human CD59 F23G (human) (P13987 26-102 F48G): as the sequence (P13987 26-102) above, with F23G counted along it
Sequence of wild type human CD59, epitope-tagged, GPI-anchored on CHO cells (human) (P13987 26-102 limits assumed): as the sequence (P13987 26-102) above
Sequence of human CD59 W40A (human) (P13987 26-102 W65A): as the sequence (P13987 26-102) above, with W40A counted along it
Sequence of human CD59 D24A (human) (P13987 26-102 D49A): as the sequence (P13987 26-102) above, with D24A counted along it
Sequence of human CD59 5R (human) (P13987 26-102): as the sequence (P13987 26-102) above

As for anti-CD59 mAb YTH53.1 (antibody), the percent of relative mean fluorescence compared to wt CD59 in experiment [1] was found to be 35.7%; with human CD59 D24A (human) it was 5%; with human CD59 5R (human), 47.9%; in [2], 18.3%; with human CD59 9R (human), 100%; with human CD59 F42A (human), 99.8%. Moreover, the percent of relative mean fluorescence compared to wt CD59 with human CD59 H44A (human) turned out to be 58.7%; in the experiment with human CD59 W40A (human) it was 1%; in the experiment with human CD59 T52A (human) it was 99.3%; with human CD59 F23G (human), 99.3%; in [3], 100%.

Consider “human CD59 51A20A (from UniProt P13987 26-102)”, for which, in experiment [4], the increase in inhibitory activity compared to the wt protein is 165 % increase and the inhibitory activity relative to the single mutant T29A was 2 fold of T29A.

Consider anti-CD59 mAb MEM43 (antibody), for which the percent of relative mean fluorescence compared to wt CD59 in experiment [1] is 98.1%; in the experiment with human CD59 D24A (human), 3.5%; in [2], 92.3%; in the experiment with human CD59 F42A (human), 99.7%; in the experiment with human CD59 H44A (human), 88.8%; with human CD59 W40A (human) it was 6.2%. Further, the figures for the percent of relative mean fluorescence compared to wt CD59 (in the experiment with human CD59 T52A (human); with human CD59 F23G (human); in experiment [3]) were 99.2%, 98.8% and 100%, respectively.

For the substance anti-CD59 mAb MEM43.5 (antibody), the percent of relative mean fluorescence compared to wt CD59 in experiment [1] amounted to 97.7%; with human CD59 D24A (human), 1.9%; with human CD59 5R (human) it was 8.2%; in experiment [2], 98.1%; in the experiment with human CD59 9R (human), 98.4%; with human CD59 F42A (human), 99.9%. Moreover, the percent of relative mean fluorescence compared to wt CD59 in the experiment with human CD59 H44A (human) amounted to 85.9%; with human CD59 W40A (human), 0.7%; with human CD59 T52A (human), 99.2%; with human CD59 F23G (human), 98.9%; in experiment [3] it was 100%.

The values above are taken from patent publication US20100036095A1.
